Reference: patent US20230174617A1

Tests used:
[1] = target: recombinant human neonatal Fc receptor (rhFcRn, R&D systems) (human) (UniProt P55899); assay: SPR, rhFcRn on CM5, analyte in PBST pH 6.0, steady state affinity
[2] = target: recombinant human neonatal Fc receptor (rhFcRn, R&D systems) (human) (UniProt P55899); assay: SPR (Biacore 8K), rhFcRn amine-coupled on CM5, analyte in PBST pH 6.0, steady state affinity

Kd [1] [nM] | Kd [2] [nM] | Substance
2390 |  | Rituximab (antibody)
 | 2090 | dulaglutide (trade name Trulicity) (Fc fusion)
